Data: publication PMC12313985

Tests used:
[1] = biological target: PKA-phosphorylated full-length human Tau (PKA-Tau) (human) (UniProt P10636)
[2] = biological target: Fluorescein (FITC)-labelled bi-phospho Tau peptide pS2 (Tau^210–222-…-Tau^318–331) (human); experiment: fluorescence polarisation; 14-3-3ζ titrated (twofold series from 400 μM) into 10 nM fluorescein-labelled peptide; 10 mM HEPES pH 7.4, 150 mM NaCl, 50 µM TCEP, 0.1% Tween20, 0.1% BSA; room temperature; 4PL fit
Sequence of Fluorescein (FITC)-labelled bi-phospho Tau peptide pS2 (Tau^210–222-…-Tau^318–331) (human) (peptide, as listed by the source): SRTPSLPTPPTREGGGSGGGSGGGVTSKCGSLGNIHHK

Sequence of PKA-phosphorylated full-length human Tau (PKA-Tau) (human) (P10636 other isoform, or with tags, fused parts or gaps): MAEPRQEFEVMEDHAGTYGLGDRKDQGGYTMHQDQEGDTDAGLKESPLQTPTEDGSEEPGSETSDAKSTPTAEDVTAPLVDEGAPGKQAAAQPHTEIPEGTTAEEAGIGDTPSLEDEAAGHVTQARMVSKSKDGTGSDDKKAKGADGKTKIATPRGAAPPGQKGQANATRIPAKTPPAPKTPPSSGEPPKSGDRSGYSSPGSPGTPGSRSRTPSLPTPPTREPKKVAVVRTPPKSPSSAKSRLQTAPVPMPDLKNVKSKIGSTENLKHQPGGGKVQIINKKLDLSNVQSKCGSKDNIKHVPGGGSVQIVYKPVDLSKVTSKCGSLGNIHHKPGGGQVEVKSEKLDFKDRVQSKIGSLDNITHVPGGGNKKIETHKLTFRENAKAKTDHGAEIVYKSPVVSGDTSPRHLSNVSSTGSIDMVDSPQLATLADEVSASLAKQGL

FRAP mobile fractions in PKA-Tau:14-3-3ζ condensates [1]: 50% | Kd [2]: 1000 nM
Substance: 14-3-3 protein zeta (14-3-3ζ) (from UniProt P63104 1-245) (natural protein)
